Series [1] has as its target Pumby8_KD_3 (synthetic (from Homo sapiens Pumilio unit 6)) (UniProt Q14671). As to the kind of experiment: FP. To be noted: 25 mM Tris-HCl pH 7.5, 0.5 mM EDTA, 50 mM KCl, 0.1 mg/mL BSA; active-fraction corrected.
Series [2] has as its target Pumby8_KD_4 (synthetic (from Homo sapiens Pumilio unit 6)) (UniProt Q14671). As to the kind of experiment: FP. Conditions: 25 mM Tris-HCl pH 7.5, 0.5 mM EDTA, 50 mM KCl, 0.1 mg/mL BSA; active-fraction corrected.

The results in this text go back to patent US20220163515.

Pumby8_KD_4 (synthetic (from Homo sapiens Pumilio unit 6)), sequence (Q14671 1028-1063): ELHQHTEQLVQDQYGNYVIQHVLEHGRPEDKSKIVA
Pumby8_KD_3 (synthetic (from Homo sapiens Pumilio unit 6)), sequence (Q14671 1028-1063): as above

CCAGAAUUGUAGAUAUUCG [KD_3 cognate]: the Kd in series [1] amounted to 1.34 nM. This lies in the single-digit nanomolar range.

Turning to CCAGAAUCAUGUCAGUUCG [KD_2/KD_4 cognate], in series [2], the Kd turned out to be 0.439 nM.
